Values quoted from earlier work as cited in patent publication US11340238B2 (Biocon Limited, priority 2015, dated 2022).

Conditions: Type 1 Diabetes Mellitus patients on RHI therapy

## recombinant Human insulin [RHI]
  Cmax: ~100 mU/L
